Experimental data: US20160130577

Key:
Assay in all cases: pulldown
Settings in all cases: mass spectrometry
[1] = molecular target: HNRPC (hnRNP C) (Homo sapiens) (UniProt P07910)
[2] = molecular target: HNRPU (hnRNP U) (Homo sapiens) (UniProt Q00839)
[3] = molecular target: NUCL (nucleolin) (Homo sapiens) (UniProt P19338)
RS3 (Homo sapiens) = RS3 (Homo sapiens) (UniProt P23396)
RS4X (Homo sapiens) = RS4X (Homo sapiens) (UniProt P62701)
hnRNPA1 (Homo sapiens) = hnRNPA1 (Homo sapiens) (UniProt P09651)
Sequence of hnRNPA1 (Homo sapiens) (P09651 2-372): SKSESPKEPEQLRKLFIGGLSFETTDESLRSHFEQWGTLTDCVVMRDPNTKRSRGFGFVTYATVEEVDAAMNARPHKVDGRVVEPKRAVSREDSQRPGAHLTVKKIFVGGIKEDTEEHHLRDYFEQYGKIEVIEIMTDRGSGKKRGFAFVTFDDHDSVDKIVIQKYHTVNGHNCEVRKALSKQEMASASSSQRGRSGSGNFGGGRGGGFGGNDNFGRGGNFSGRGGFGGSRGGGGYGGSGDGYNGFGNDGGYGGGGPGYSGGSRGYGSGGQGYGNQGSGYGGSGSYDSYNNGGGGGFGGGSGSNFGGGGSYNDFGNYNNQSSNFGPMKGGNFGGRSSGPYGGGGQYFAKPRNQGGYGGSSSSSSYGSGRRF

hnRNPA2B1 (Homo sapiens) = hnRNPA2B1 (Homo sapiens) (UniProt P22626)
Sequence of hnRNPA2B1 (Homo sapiens) (P22626 whole entry): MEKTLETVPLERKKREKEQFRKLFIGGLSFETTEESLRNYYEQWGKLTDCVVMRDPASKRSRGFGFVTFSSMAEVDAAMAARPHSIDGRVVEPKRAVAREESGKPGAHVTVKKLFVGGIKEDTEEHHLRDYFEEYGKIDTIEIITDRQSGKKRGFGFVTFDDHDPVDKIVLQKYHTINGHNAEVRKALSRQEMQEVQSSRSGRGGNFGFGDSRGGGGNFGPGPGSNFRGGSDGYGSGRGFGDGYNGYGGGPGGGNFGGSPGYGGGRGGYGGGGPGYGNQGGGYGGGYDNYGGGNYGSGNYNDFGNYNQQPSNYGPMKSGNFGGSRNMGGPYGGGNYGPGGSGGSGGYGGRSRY

Sequence of NUCL (nucleolin) (Homo sapiens) (P19338 2-710): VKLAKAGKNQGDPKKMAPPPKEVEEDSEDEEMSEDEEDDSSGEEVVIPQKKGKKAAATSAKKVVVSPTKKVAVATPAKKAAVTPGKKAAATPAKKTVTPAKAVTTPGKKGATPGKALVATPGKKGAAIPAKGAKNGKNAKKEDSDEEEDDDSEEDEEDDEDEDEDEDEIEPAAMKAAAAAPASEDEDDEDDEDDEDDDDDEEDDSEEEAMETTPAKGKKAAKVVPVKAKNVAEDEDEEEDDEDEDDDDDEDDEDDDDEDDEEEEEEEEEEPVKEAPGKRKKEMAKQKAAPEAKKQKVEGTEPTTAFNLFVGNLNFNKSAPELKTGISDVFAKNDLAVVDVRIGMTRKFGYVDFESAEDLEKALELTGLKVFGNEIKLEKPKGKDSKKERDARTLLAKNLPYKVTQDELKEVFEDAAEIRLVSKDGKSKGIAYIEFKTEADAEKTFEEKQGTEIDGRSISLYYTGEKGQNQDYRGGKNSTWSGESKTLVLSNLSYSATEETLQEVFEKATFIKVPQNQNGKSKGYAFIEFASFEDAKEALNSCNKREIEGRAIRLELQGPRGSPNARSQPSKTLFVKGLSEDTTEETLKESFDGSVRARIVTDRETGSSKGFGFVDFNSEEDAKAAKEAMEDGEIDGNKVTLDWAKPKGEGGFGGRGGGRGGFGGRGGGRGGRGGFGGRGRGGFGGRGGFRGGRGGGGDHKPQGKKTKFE
Sequence of HNRPC (hnRNP C) (Homo sapiens) (P07910 2-306): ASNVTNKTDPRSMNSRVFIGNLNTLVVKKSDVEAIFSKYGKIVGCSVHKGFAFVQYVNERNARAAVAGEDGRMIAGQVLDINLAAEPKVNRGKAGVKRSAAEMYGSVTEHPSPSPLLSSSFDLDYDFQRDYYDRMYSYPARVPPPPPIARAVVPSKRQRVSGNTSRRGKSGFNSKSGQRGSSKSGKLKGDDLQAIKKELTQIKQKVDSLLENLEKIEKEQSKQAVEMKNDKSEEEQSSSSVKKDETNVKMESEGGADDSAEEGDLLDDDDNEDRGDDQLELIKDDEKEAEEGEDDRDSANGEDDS
Sequence of HNRPU (hnRNP U) (Homo sapiens) (Q00839 2-825): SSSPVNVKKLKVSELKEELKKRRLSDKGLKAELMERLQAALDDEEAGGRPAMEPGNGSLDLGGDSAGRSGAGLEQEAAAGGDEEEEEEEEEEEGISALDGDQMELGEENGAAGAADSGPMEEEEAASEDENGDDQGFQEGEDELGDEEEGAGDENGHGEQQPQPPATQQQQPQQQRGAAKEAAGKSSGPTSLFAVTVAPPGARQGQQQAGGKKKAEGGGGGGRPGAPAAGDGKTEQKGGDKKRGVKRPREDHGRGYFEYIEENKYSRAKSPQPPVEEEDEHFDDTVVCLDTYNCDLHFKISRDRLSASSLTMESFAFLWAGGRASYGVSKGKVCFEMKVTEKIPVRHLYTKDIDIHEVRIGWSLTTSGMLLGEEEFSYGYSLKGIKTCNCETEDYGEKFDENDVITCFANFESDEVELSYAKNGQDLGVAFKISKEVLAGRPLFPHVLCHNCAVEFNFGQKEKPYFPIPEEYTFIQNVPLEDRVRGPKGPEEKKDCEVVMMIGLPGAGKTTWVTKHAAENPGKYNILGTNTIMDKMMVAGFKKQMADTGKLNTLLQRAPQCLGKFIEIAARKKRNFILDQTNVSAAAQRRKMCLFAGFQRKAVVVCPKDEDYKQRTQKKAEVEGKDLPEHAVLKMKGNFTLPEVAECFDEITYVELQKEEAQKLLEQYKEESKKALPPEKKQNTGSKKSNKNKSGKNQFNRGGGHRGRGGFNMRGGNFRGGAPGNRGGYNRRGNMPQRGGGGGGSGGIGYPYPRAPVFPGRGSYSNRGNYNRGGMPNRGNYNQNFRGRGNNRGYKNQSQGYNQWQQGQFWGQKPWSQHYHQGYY

| Substance | binding [1] [peptides] | binding [2] [peptides] | binding ([3]; non-specific) [peptides] | binding (RS3 (Homo sapiens)) [peptides] | binding (RS4X (Homo sapiens)) [peptides] | binding (hnRNPA1 (Homo sapiens)) [peptides] | binding (hnRNPA2B1 (Homo sapiens)) [peptides] | binding [3] [peptides] | binding (hnRNPA2B1 (Homo sapiens); streptavidin bead pulldown) [peptides] |
| --- | --- | --- | --- | --- | --- | --- | --- | --- | --- |
| poly-A | 0 | 0 | 8 | 0 | 0 | 0 | 0 | – | – |
| miR-198 | 1 | 3 | – | 3 | 3 | 2 | – | 9 | 4 |
